In publication PMC11802746 (Nature Communications, 2025):

Biological target: GST-MST3 (human, UniProt Q9Y6E0-2 1-431)
Experiment: pull-down

- binding result: binds
B1: His-SUMO-tagged PGAM5 (25-289) (domain or fragment, human, UniProt Q96HS1 25-289, looked up)
chain: AVAVGKPRAGGDAEPRPAEPPAWAGGARPGPGVWDPNWDRREPLSLINVRKRNVESGEEELASKLDHYKAKATRHIFLIRHSQYHVDGSLEKDRTLTPLGREQAELTGLRLASLGLKFNKIVHSSMTRAIETTDIISRHLPGVCKVSTDLLREGAPIEPDPPVSHWKPEAVQYYEDGARIEAAFRNYIHRADARQEEDSYEIFICHANVIRYIVCRALQFPPEGWLRLSLNNGSITHLVIRPNGRVALRTLGDTGFMPPDKITRS
